# Experimental data taken from US20090131317A1, “COMPOUNDS AND PEPTIDES THAT BIND THE TRAIL RECEPTOR” (AFFYMAX, INC., priority 2007, published 2009).
# Several values for one entry are separate records, joined by “and”; a condition that tells them apart may be missing. Identical values can stand only once. Numbered stars: 1 amine (or outer) side, 2 acyl side, 3 side chain; on linkers, the order of the positions; unused ones are H or OH. Bridge positions count the residues as written; N and C are the ends. Peptide text beside a SMILES is read from it. I, II: the chains in the order shown. Isophthaloyl = O=C(c1cccc(C(=O)[*:2])c1)[*:1]; Diglycolyl = O=C(COCC(=O)[*:2])[*:1]; DIG = diglycolic acid linker
# B1: peptide homodimer based on the peptide monomer amino acid sequence of SEQ ID NO: 30, DIG linker (peptide)
# peptide: Ac-WDCLVDRPGRRQCVRLERK-NH2
# modifications: disulfide 3-13 (inferred); also: homodimer via diglycolic acid (DIG) linker, site not given here
# B2: peptide monomer based on the amino acid sequence of SEQ ID NO: 22 conjugated to a DIG linker moiety (peptide)
# peptide: Ac-WDCLDRPGRRQCVK-NH2
# modifications: disulfide 3-12 (inferred); also: DIG linker moiety conjugated, site not given here
# B3: peptide homodimer based on the monomer amino acid sequence of SEQ ID NO: 22, DIG linker (peptide)
# peptide: Ac-WDCLDRPGRRQCVK-NH2
# modifications: disulfide 3-12 (inferred); also: homodimer via diglycolic acid (DIG) linker, site not given here
# B4: peptide homodimer based on the peptide monomer amino acid sequence of SEQ ID NO: 29, DIG linker (peptide)
# peptide: Ac-WDCLVDRPGRRQCVRLEK-NH2
# modifications: disulfide 3-13 (inferred); also: homodimer via diglycolic acid (DIG) linker, site not given here
# B5: peptide homodimer based on the peptide monomer amino acid sequence of SEQ ID NO: 31, DIG linker (peptide)
# peptide: Ac-WDCLVDRPGRRQCVKLER-NH2
# modifications: disulfide 3-13 (inferred); also: homodimer via diglycolic acid (DIG) linker, site not given here
# Columns and labels:
# Jurkat cells = type: cell-based
# Protocol: The apoptotic activity of test peptides is measured using a Jurkat proliferation assay.
# Jurkat cells are obtained from the American Type Culture Collection (ATCC, Manassas, Va.) and are maintained in RPMI-1640 medium supplemented with 10% FBS, 100 U/mL penicillin, and 100 […] (Growth Medium). […] Cells are resuspended at a density of 1×10^6 cells/mL in Growth Medium, and 50 μl cells is added to each well of the assay plates. The plates are incubated in a 37° C., 5% CO2 incubator for 24-48 hours. Proliferation is assessed by adding 10 μL of MTT stock solution (ATCC, Manassas, Va.) to the wells. The plates are incubated in a 37° C., 5% CO2 incubator for another 2-4 hours, followed by the addition of 100 μL of 20% SDS with 0.01 N HCl. After incubation overnight in a 37° C., 5% CO2 incubator, the plates are quantified by reading the optical density at a wavelength of 595 nm (OD595) in a SpectraMax® M5 microplate reader (Molecular Devices, Sunnyvale, Calif.). The data are analyzed using GraphPad Prism® software (La Jolla, Calif.) to calculate IC50 values from a 4-parameter logistic equation.
# human TRAIL R2 = biological target: T1, human TRAIL R2 (Homo sapiens, UniProt O14763); test: AlphaQuest TRAIL R2 receptor binding competition assay (AlphaScreen, biotinylated TRAIL ligand vs TRAIL R2-Fc); conditions: competition with biotinylated TRAIL ligand; single values and ranges over assays; read-out: binding activity (IC50)
# T1 construct: purchased R&D Systems, Minneapolis, Minn
# Excerpt: Laser excitation (680 nm) of a photosensitizer in the donor bead generates singlet state oxygen molecules, which react with a chemiluminescer in the acceptor bead to generate a detectable light signal (520-620 nm). Because the singlet O2 molecules have an extremely short half-life (i.e., t ½), a signal is generated only when the donor and acceptor beads are brought into close proximity, by TRAIL binding to the R2 receptor. The presence of unlabeled test peptide that competes with TRAIL for binding to the R2 receptor will prevent this binding, resulting in a measurable decrease in light emission.
# Recombinant human TRAIL R2-Fc fusion protein (R&D Systems, Minneapolis, Minn.) is diluted in AlphaQuest® buffer to a concentration of 600 pM, pre-mixed with 1.9 μL Protein A-coated acceptor beads and 1.9 μL streptavidin-coated donor beads (Perkin-Elmer®, Waltham, Mass.), then 2 μL is added to each well of the assay plate. […] The plates are sealed with adhesive sealing film and covered with aluminum foil, centrifuged at 600 rpm for 30 seconds and incubated overnight in the dark. […] The raw data are analyzed using GraphPad Prism® software (La Jolla, Calif.) to calculate IC50 values from a 4-parameter logistic equation.
# [1] = biological target: T2, Recombinant human TRAIL R2-Fc fusion protein (R&D Systems) (human, UniProt O14763 52-182, limits assumed); test: AlphaQuest competition: displaces biotinylated TRAIL ligand from human TRAIL R2-Fc
# T2 construct: Bought from R&D Systems; held on protein A-coated acceptor beads in the AlphaQuest/AlphaScreen assay; also called TRAIL R2 receptor; R2 receptor; not shown: Fc part of the bought fusion protein
# Protocol: The plates are sealed with adhesive sealing film and covered with aluminum foil, centrifuged at 600 rpm for 30 seconds and incubated overnight in the dark. […] The raw data are analyzed using GraphPad Prism® software (La Jolla, Calif.) to calculate IC₅₀ values from a 4-parameter logistic equation.
# [2] = biological target: TRAIL R2 receptor on HCT-116 or Jurkat cells (UniProt O14763 56-440, limits assumed); test: cell-based or functional assay
molecule,measurement,setting,value
"CC[C@H](C)[C@@H]1NC(=O)[C@H](CCCNC(=N)N)NC(=O)[C@H](CC(N)=O)NC(=O)[C@H](CC(=O)O)NC(=O)[C@H](CC(C)C)NC(=O)[C@@H](NC(=O)[C@H](CC(=O)O)NC(=O)[C@H](Cc2c[nH]c3ccccc23)NC(C)=O)CSSC[C@@H](C(=O)N[C@H](C(=O)N[C@@H](CCCCNC(=O)c2cccc(C(=O)NCCCC[C@H](NC(=O)[C@@H](NC(=O)[C@@H]3CSSC[C@H](NC(=O)[C@H](CC(=O)O)NC(=O)[C@H](Cc4c[nH]c5ccccc45)NC(C)=O)C(=O)N[C@@H](CC(C)C)C(=O)N[C@@H](CC(=O)O)C(=O)N[C@@H](CC(N)=O)C(=O)N[C@@H](CCCNC(=N)N)C(=O)N[C@@H]([C@@H](C)CC)C(=O)NCC(=O)N[C@@H](CCCNC(=N)N)C(=O)N[C@@H](CCCNC(=N)N)C(=O)N[C@@H](CCC(N)=O)C(=O)N3)C(C)C)C(=O)N[C@@H](CC(C)C)C(N)=O)c2)C(=O)N[C@@H](CC(C)C)C(N)=O)C(C)C)NC(=O)[C@H](CCC(N)=O)NC(=O)[C@H](CCCNC(=N)N)NC(=O)[C@H](CCCNC(=N)N)NC(=O)CNC1=O [SEQ ID NO: 19 homodimer (IPA linker)] (I: Ac-WDCLDNRIGRRQCVKL-NH2 / II: Ac-WDCLDNRIGRRQCVKL-NH2; disulfide I:3-I:13, II:3-II:13; linker I:15-II:15 via Isophthaloyl)",EC50,Jurkat cells,1.4 to 4.02 µM
CC(=O)N[C@@H](Cc1c[nH]c2ccccc12)C(=O)N[C@@H](CC(=O)O)C(=O)N[C@H]1CSSC[C@@H](C(=O)N[C@H](C(=O)N[C@@H](CCCCN)C(N)=O)C(C)C)NC(=O)[C@H](CCC(N)=O)NC(=O)[C@H](CCCNC(=N)N)NC(=O)[C@H](CCCNC(=N)N)NC(=O)CNC(=O)[C@@H]2CCCN2C(=O)[C@H](CCCNC(=N)N)NC(=O)[C@H](CC(=O)O)NC(=O)[C@H](CC(C)C)NC1=O [SEQ ID NO: 22 monomer] (Ac-WDCLDRPGRRQCVK-NH2; disulfide 3-12),IC50,human TRAIL R2,3550 to 10700 nM
CC[C@H](C)[C@@H]1NC(=O)[C@H](CCCNC(=N)N)NC(=O)[C@H](CC(N)=O)NC(=O)[C@H](CC(=O)O)NC(=O)[C@H](CC(C)C)NC(=O)[C@@H](NC(=O)[C@H](CC(=O)O)NC(C)=O)CSSC[C@@H](C(=O)N[C@H](C(=O)N[C@@H](CCCCN)C(=O)N[C@@H](CC(C)C)C(N)=O)C(C)C)NC(=O)[C@H](CCC(N)=O)NC(=O)[C@H](CCCNC(=N)N)NC(=O)[C@H](CCCNC(=N)N)NC(=O)CNC1=O [SEQ ID NO: 25 monomer] (Ac-DCLDNRIGRRQCVKL-NH2; disulfide 2-12),IC50,human TRAIL R2,≥ 100000 nM
"CC[C@H](C)[C@@H]1NC(=O)[C@H](CCCNC(=N)N)NC(=O)[C@H](CC(N)=O)NC(=O)[C@H](CC(=O)O)NC(=O)[C@H](CC(C)C)NC(=O)[C@@H](NC(=O)[C@H](CC(=O)O)NC(=O)[C@H](Cc2c[nH]c3ccccc23)NC(C)=O)CSSC[C@@H](C(=O)N[C@H](C(=O)N[C@@H](CCCNC(=N)N)C(N)=O)C(C)C)NC(=O)[C@H](CCC(N)=O)NC(=O)[C@H](CCCNC(=N)N)NC(=O)[C@H](CCCCNC(=O)COCC(=O)NCCCC[C@@H]2NC(=O)CNC(=O)[C@H]([C@@H](C)CC)NC(=O)[C@H](CCCNC(=N)N)NC(=O)[C@H](CC(N)=O)NC(=O)[C@H](CC(=O)O)NC(=O)[C@H](CC(C)C)NC(=O)[C@@H](NC(=O)[C@H](CC(=O)O)NC(=O)[C@H](Cc3c[nH]c4ccccc34)NC(C)=O)CSSC[C@@H](C(=O)N[C@H](C(=O)N[C@@H](CCCNC(=N)N)C(N)=O)C(C)C)NC(=O)[C@H](CCC(N)=O)NC(=O)[C@H](CCCNC(=N)N)NC2=O)NC(=O)CNC1=O [SEQ ID NO: 33 homodimer] (I: Ac-WDCLDNRIGKRQCVR-NH2 / II: Ac-WDCLDNRIGKRQCVR-NH2; disulfide I:3-I:13, II:3-II:13; linker I:10-II:10 via Diglycolyl)",IC50,human TRAIL R2,0.025 to 0.092 nM and ~0.061 nM
CC[C@H](C)[C@@H]1NC(=O)[C@H](CCCNC(=N)N)NC(=O)[C@H](CC(N)=O)NC(=O)[C@H](CC(=O)O)NC(=O)[C@H](CC(C)C)NC(=O)[C@@H](NC(=O)[C@H](CC(=O)O)NC(=O)[C@H](Cc2c[nH]c3ccccc23)NC(C)=O)CSSC[C@@H](C(=O)N[C@H](C(=O)N[C@@H](CCCNC(=N)N)C(N)=O)C(C)C)NC(=O)[C@H](CCC(N)=O)NC(=O)[C@H](CCCNC(=N)N)NC(=O)[C@H](CCCCN)NC(=O)CNC1=O [SEQ ID NO: 33 monomer] (Ac-WDCLDNRIGKRQCVR-NH2; disulfide 3-13),IC50,human TRAIL R2,200 to 5700 nM
Ac-WDCLDNRIGRRQCVK-NH2 (disulfide 3-13 (inferred)) [peptide monomer based on the amino acid sequence of SEQ ID NO: 28],IC50,[1],~0.08 µM
B1,"EC50, Jurkat proliferation assay (apoptosis, MTT)",[2],0.611 to 1.09 µM
Ac-DCLDNRIGRRQCVKL-NH2 (disulfide 2-12 (inferred)) [peptide monomer based on the amino acid sequence of SEQ ID NO: 25],IC50,[1],≥ 100 µM
B2,IC50,[1],1.2 to 2.3 µM
B3,IC50,[1],0.0062 µM
B4,"EC50, Jurkat proliferation assay (apoptosis, MTT)",[2],1.3 to 1.66 µM
"Ac-WDCLDNRIGRRQCVKL-NH2 (disulfide 3-13; also: homodimer via IPA linker, site not given here) [peptide homodimer based on the peptide monomer amino acid sequence of SEQ ID NO: 19, IPA linker]","EC50, Jurkat proliferation assay (apoptosis, MTT)",[2],1.4 to 4.02 µM
B5,"EC50, Jurkat proliferation assay (apoptosis, MTT)",[2],> 33 µM
Ac-GGSWDCLDNRIGRRQCVKL-NH2 (disulfide 6-16 (inferred)) [peptide monomer based on the amino acid sequence of SEQ ID NO: 20],IC50,[1],~0.303 µM
"Ac-WDCLDNRIGRRQCVKL-NH2 (disulfide 3-13; also: homodimer via DOD linker, site not given here) [peptide homodimer based on the peptide monomer amino acid sequence of SEQ ID NO: 19, DOD linker]","EC50, Jurkat proliferation assay (apoptosis, MTT)",[2],2 to 4.41 µM
"Ac-WDCLDNRIGRRQCVKL-NH2 (disulfide 3-13; also: homotrimer via TSAT linker, site not given here) [peptide homotrimer based on the peptide monomer sequence of SEQ ID NO: 19, TSAT linker]","EC50, apoptotic activity in HCT-116 proliferation assay (MTT)",[2],~0.48 µM
"Ac-WDCLDNRIGRRQCVK(DIG)L-NH2 (disulfide 3-13; also: homodimer joined through DIG linker) [peptide homodimer based on the monomer amino acid sequence of SEQ ID NO: 19, DIG linker]","EC50, apoptotic activity in HCT-116 proliferation assay (MTT)",[2],~1.62 µM
